Assay results reported in patent publication US7892769B2, “Processing of EphA4 polypeptide by γ-secretase activity” (Eisai R&D Management Co., Ltd., priority 2007, dated 2011).

B1: EICD Δ3: HA-tagged EphA4 intracellular deletion mutant, 661 amino acid-Stop, SEQ ID NO: 172 (protein, listed as Rattus norvegicus)
chain: MDYPYDVPDYATRVDDKQRRDFLSEASIMGQFDHPNIIHLEGVVTKCKPVMIITEYMENGSLDAFLRKNDGRFTVIQLVGMLRGIGSGMKYLSDMSYVHRDLAARNILVNSNLVCKVSDFGMSRVLEDDPEAAYTTRGGKIPIRWTAPEAIAYRKFTSASDVWSYGIVMWEVMSYGERPYWDMSNQDVIKAIEEGYRLPPPMDCPIALHQLMLDCWQKERSDRPKFGQIVNMLDKLIRNPNSLKRTGPESSRPNTALLDPSSPEFSAVVSVGDWLQAIKMDRYKDNFTAAGYTTLEAVVHMSQDDLARIGITAITHQNKILSSVQAMRTQMQQMHGRMVPV
modifications: HA tag
B2: HA-γ-fragment: γ-secretase-cleaved rat EphA4 intracellular fragment with N-terminal HA tag, SEQ ID NO: 198, expressed by transfection (protein)
chain: MSALLILALVGAAVAGSEFTRVEVTTNTVPSRIIGDGANSTVLLVSVSGSVVLVVILIAAFVISRRRSKYSQAKQEADEEKHLNQGVRTYVDPFTYEDPNQAVREFAKEIDASCIKIEKVIGVGEFGEVCSGRLKVPGKREICVAIKTLKAGYTDKQRRDFLSEASIMGQFDHPNIIHLEGVVTKCKPVMIITEYMENGSLDAFLRKNDGRFTVIQLVGMLRGIGSGMKYLSDMSYVHRDLAARNILVNSNLVCKVSDFGMSRVLEDDPEAAYTTRGGKIPIRWTAPEAIAYRKFTSASDVWSYGIVMWEVMSYGERPYWDMSNQDVIKAIEEGYRLPPPMDCPIALHQLMLDCWQKERSDRPKFGQIVNMLDKLIRNPNSLKRTGPESSRPNTALLDPSSPEFSAVVSVGDWLQAIKMDRYKDNFTAAGYTTLEAVVHMSQDDLARIGITAITHQNKILSSVQAMRTQMQQMHGRMVPVAAAMDYPYDVPDYA
modifications: N-terminal HA tag; synthetic DNA
B3: HA-EICD: rat EphA4 intracellular domain (amino acid 571 to stop) with N-terminal HA tag, SEQ ID NO: 94, expressed by transfection (protein, listed as Rattus norvegicus)
chain: MDYPYDVPDYATRVERRRSKYSQAKQEADEEKHLNQGVRTYVDPFTYEDPNQAVREFAKEIDASCIKIEKVIGVGEFGEVCSGRLKVPGKREICVAIKTLKAGYTDKQRRDFLSEASIMGQFDHPNIIHLEGVVTKCKPVMIITEYMENGSLDAFLRKNDGRFTVIQLVGMLRGIGSGMKYLSDMSYVHRDLAARNILVNSNLVCKVSDFGMSRVLEDDPEAAYTTRGGKIPIRWTAPEAIAYRKFTSASDVWSYGIVMWEVMSYGERPYWDMSNQDVIKAIEEGYRLPPPMDCPIALHQLMLDCWQKERSDRPKFGQIVNMLDKLIRNPNSLKRTGPESSRPNTALLDPSSPEFSAVVSVGDWLQAIKMDRYKDNFTAAGYTTLEAVVHMSQDDLARIGITAITHQNKILSSVQAMRTQMQQMHGRMVPV
modifications: N-terminal HA tag
B4: EICD Δ1: HA-tagged EphA4 intracellular deletion mutant, 587 amino acid-Stop, SEQ ID NO: 168 (protein, listed as Rattus norvegicus)
chain: MDYPYDVPDYATRVDKHLNQGVRTYVDPFTYEDPNQAVREFAKEIDASCIKIEKVIGVGEFGEVCSGRLKVPGKREICVAIKTLKAGYTDKQRRDFLSEASIMGQFDHPNIIHLEGVVTKCKPVMIITEYMENGSLDAFLRKNDGRFTVIQLVGMLRGIGSGMKYLSDMSYVHRDLAARNILVNSNLVCKVSDFGMSRVLEDDPEAAYTTRGGKIPIRWTAPEAIAYRKFTSASDVWSYGIVMWEVMSYGERPYWDMSNQDVIKAIEEGYRLPPPMDCPIALHQLMLDCWQKERSDRPKFGQIVNMLDKLIRNPNSLKRTGPESSRPNTALLDPSSPEFSAVVSVGDWLQAIKMDRYKDNFTAAGYTTLEAVVHMSQDDLARIGITAITHQNKILSSVQAMRTQMQQMHGRMVPV
modifications: HA tag
B5: EICD Δ2: HA-tagged EphA4 intracellular deletion mutant, 622 amino acid-Stop, SEQ ID NO: 170 (protein, listed as Rattus norvegicus)
chain: MDYPYDVPDYATRVDKIEKVIGVGEFGEVCSGRLKVPGKREICVAIKTLKAGYTDKQRRDFLSEASIMGQFDHPNIIHLEGVVTKCKPVMIITEYMENGSLDAFLRKNDGRFTVIQLVGMLRGIGSGMKYLSDMSYVHRDLAARNILVNSNLVCKVSDFGMSRVLEDDPEAAYTTRGGKIPIRWTAPEAIAYRKFTSASDVWSYGIVMWEVMSYGERPYWDMSNQDVIKAIEEGYRLPPPMDCPIALHQLMLDCWQKERSDRPKFGQIVNMLDKLIRNPNSLKRTGPESSRPNTALLDPSSPEFSAVVSVGDWLQAIKMDRYKDNFTAAGYTTLEAVVHMSQDDLARIGITAITHQNKILSSVQAMRTQMQQMHGRMVPV
modifications: HA tag
B6: EICD Δ4: HA-tagged EphA4 intracellular deletion mutant, 701 amino acid-Stop, SEQ ID NO: 174 (protein, listed as Rattus norvegicus)
chain: MDYPYDVPDYATRVDYMENGSLDAFLRKNDGRFTVIQLVGMLRGIGSGMKYLSDMSYVHRDLAARNILVNSNLVCKVSDFGMSRVLEDDPEAAYTTRGGKIPIRWTAPEAIAYRKFTSASDVWSYGIVMWEVMSYGERPYWDMSNQDVIKAIEEGYRLPPPMDCPIALHQLMLDCWQKERSDRPKFGQIVNMLDKLIRNPNSLKRTGPESSRPNTALLDPSSPEFSAVVSVGDWLQAIKMDRYKDNFTAAGYTTLEAVVHMSQDDLARIGITAITHQNKILSSVQAMRTQMQQMHGRMVPV
modifications: HA tag

What was measured:
NIH3T3 cells = test: Lamellipodia formation (Rac1 activation indicator) after gene transfer into NIH3T3 cells; type: cell-based; conditions: for ratios of lamellipodia forming cells: EICD deletion mutants transfected separately, compared with HA, FIG. 8; for lamellipodia formation promotive capacity: cotransfected with Rac1N17 (dominant negative form of Rac1); for lamellipodia formation promotive capacity / lamellipodia formation: FIG. 6, FIG. 7; for lamellipodia formation: fragment gene transfected alone, vs HA control
Experimental: In order to examine whether or not EICD produced by γ-secretase is involved in the signaling mechanism of Rho family molecules, and activation of which molecule EICD is involved in, gene transfer into NIH3T3 cells was performed, followed by analysis of the effect of EICD in the rearrangement of actin cytoskeletons in which Rho family molecules are involved. In the rearrangement, the following facts are known: when RhoA is activated, actin fibers called stress fibers are formed at the bottom of cells; when Cdc42 is activated, protrusions called filopodia are formed; when Rac1 is activated, structures called lamellipodia are formed. The effect of EICD was examined with these formations as indicators.
NIH3T3 cells were cultured in 10% CBS (flow)/Antibiotic-Antimycotic (Invitrogen)/DMEM (Invitrogen) under 5% CO2 at 37° C. Genes encoding HA-EICD (SEQ ID NO: 93) or EICD+Rac1N17 (SEQ ID NO: 200) were transfected into the cells with Lipofectamine 2000 (Invitrogen). Eighteen hours later, the cells were replated in wells provided with poly-L-lysin (SIGMA)-coated 13 mm cover glass. Eighteen hours thereafter, the cells were fixed in 2% paraformaldehyde (Wako), treated with 0.25% TritonX-100 and blocked with BlockAce (Snow Brand Milk Products). After the blocking, the cells were treated with rat anti-HA antibody (Roche), followed by reaction with FITC-linked anti-rat IgG antibody (Jackson) and Alexa Fluor phalloidin 546 (Molecular probes).
In the above-mentioned Example 6, the EphA4 fragment used in Example 5 (SEQ ID NO: 197) was transfected instead of the HA-EphA4 intracellular fragment and lamellipodia formation was analyzed in the same way.
Genes encoding HA, HA-EICD (SEQ ID NO: 93) and various EICD mutants (HA-EICD Δ1 to HA-EICD Δ4) prepared in (1) above were transfected to NIH3T3 cells separately in the same manner as described in Examples 6 and 7. Then, ratios of lamellipodia forming cells were examined. In the various EICD mutants described below, capital letters appearing at the 5′ end of the nucleotide sequences represent a nucleotide sequence encoding HA tag. Small letters appearing at the 3′ end represent a nucleotide sequence encoding EphA4 intracellular fragment.

[1] = test system: primary culture of rat hippocampal neurons; test: Spine formation analysis by overexpression of EphA4 fragments in primary culture of rat hippocampal neurons; type: cell-based; conditions: fragment gene transfected on day 9 of culture, counted twelve days after gene transfer, GFP-visualized; vs HA control; FIG. 4, FIG. 5
Experimental: Primary culture of rat hippocampal neurons were cultured in the same manner as described in Example 2. On day 9 of culture, gene transfer experiment was performed using Lipofectamine 2000 (Invitrogen) according to the manual. In order to visualize the morphology of spines, pcDNA3.1Syn1 GFP (SEQ ID NO: 306) was co-transferred into the neurons. Twelve days after the gene transfer, the neurons were fixed with 2% paraformaldehyde, treated with 0.25% TritonX-100 and blocked with BlockAce (Snow Brand Milk). After the blocking, the neurons were treated with rabbit anti-GFP antibody (Invitrogen) and rat anti-HA antibody (Roche); and reacted with FITC-linked anti-rabbit IgG antibody (Jackson), Cy3-linked anti-mouse IgG antibody (Jackson) and Cy5-linked anti-rat IgG antibody (Jackson). […] The spines (protuberances formed on dendrites) which were visualized by the expression of GFP were counted. Image data were quantitatively determined with image analysis software Metamorph (Molecular Devices). pcDNA3.1Syn1 GFP may be obtained by the procedures described below.
In the above-mentioned Example 4, the gene with an HA tag added to its N-terminus (SEQ ID NO:197), which is one of the two cleaved fragments, was transfected instead of the HA-EphA4 intracellular fragment and spine formation was analyzed in the same way based on the cleavage site specified in Example 3.

Molecule	ratios of lamellipodia forming cells (NIH3T3 cells)	number of spines [1]	lamellipodia formation promotive capacity (NIH3T3 cells)	lamellipodia formation (NIH3T3 cells)
B1	almost the same level as that of HA	–	–	–
B2	–	increases the number of spines	disappeared completely	promotes lamellipodia formation
B3	–	increases the number of spines	disappeared completely	lamellipodia formation is promoted
B4	lamellipodia forming cells are increased	–	–	–
B5	almost the same level as that of HA	–	–	–
B6	almost the same level as that of HA	–	–	–
